This assay deals with CD8 (protein not named in Table 16).

The text below walks through data of patent US20260265780A1.

As usually defined, the Kd is a measure of binding affinity in units of concentration. A low value points to higher affinity. For orientation: koff means a measure of how fast the partners let go of each other. Read a low koff as a long-lived complex. What is called kon is the second-order rate constant of association. Higher therefore signals fast association.

B1: CD8 binder 97 (VHH) (VHH)
VHH: QVQLVESGGGLVQAGGSLRLSCAASGRTFSGYVMGWFRQAPGKQRKFVAAISRGGLSTSYADSVKGRFTISRDNAKNTVFLQMNTLKPEDTAVYYCAADRSDLYEITAASNIDSWGQGTLVTVSS
Molecule B1 had a Highest Response (nm) of 0.465 nm, a Kd of 5.3 nM, a dissociation rate constant (koff) of 0.000272 s⁻¹ and a kon of 51400 M⁻¹ s⁻¹.
